In patent publication US20070042946A1:

Experiments:
[1] = biological target: human α-thrombin (human), P00734; assay: cell-based or functional assay
[2] = biological target: human α-thrombin (human), P00734; assay: amidolytic assay, 25° C.; from competitive inhibition at inhibitor above 20 nM (footnote c); non-competitive behaviour below 20 nM
[3] = biological target: human α-thrombin (human), P00734; assay: amidolytic assay, Tos-Gly-Pro-Arg-pNA hydrolysis by human α-thrombin, 25° C.

Binder | IC50 (DCT), clotting assay, 37° C.; recombinant peptide WD22-R-P^(d) [1] [nM] | IC50 (DCT), clotting assay, 37° C.; synthetic peptide [1] [nM] | Ki [2] [nM] | IC50 (DCT), clotting assay, 37° C. [1] [nM] | Ki [3] [nM] | IC50 (DCT), clotting assay, 37° C.; recombinant peptide WD22-R-YP^(d) [1] [nM]
WDPRPQRHNDGDFEPIPEEYLQ (modifications not checked) [WD22-R-P] | 8.1 | 6.7 | 171 |  |  | 
WDPRPQLHNDGDFEPIPEEYLQ (modifications not checked) [WD22-L-P] |  |  |  | 26 | 39 | 
FNPRP (modifications not checked) [FN] |  |  |  | > 100000 | > 2000 | 
WDPRPQRHNDGDYEPIPEEYLQ (modifications not checked) [WD22-R-YP] |  | 4.5 | 358 |  |  | 4.8
